{"source": "the supplement of paper PMC9732359", "note": "± gives the uncertainty stated by the source."}
{"test": "protein stability index of a GFP-peptide fusion (yeast GPS) (PSI 1-4); higher = more stable; sorted into four equal gates, so the index is relative within each strain", "conditions": "doa10∆", "method_in_brief": "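Tiled 17-residue peptides from yeast proteins were fused downstream of GFP on a plasmid that also expresses Cherry, and the pooled library was carried in yeast. Mid-log cultures grown in leucine-free medium were sorted into four equal gates by GFP/Cherry fluorescence ratio. Plasmids from each gate were PCR-amplified and Illumina-sequenced, and reads were assigned to strains by barcodes. Each peptide's protein stability index is the sum, over gates, of the gate's read frequency multiplied by its gate number.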"}
{"sequence": "AGLEITSDNLLTITKAA [RPP1B]", "protein stability index": "2.42 ± 0.051"}
{"sequence": "AGMTTIVRDLDRPGSKF [RPL3]", "protein stability index": "2.39 ± 0.11"}
{"sequence": "AGNSQITSGGFLLKAYI [SRB5]", "protein stability index": "2.11 ± 0.1"}
{"sequence": "AHAIDQMTWRQWLNNAL [POP8]", "protein stability index": "2.67 ± 0.065"}
{"sequence": "AHIEKQSLDTIGGSDAA [RPO21]", "protein stability index": "3.18 ± 0.097"}
{"sequence": "AHLWQKIHESIVFDICQ [PRP8]", "protein stability index": "2.56 ± 0.09"}
{"sequence": "AIFPYQDPIFGSVLLTL [ECM29]", "protein stability index": "1.69 ± 0.045"}
{"sequence": "AIIYQRGKDGKLHVAAK [YGL100W/SEH1]", "protein stability index": "3.25 ± 0.12"}
{"sequence": "AIKDKLEQDLHFENAKV [YIL149C/MLP2]", "protein stability index": "3.09 ± 0.066"}
{"sequence": "AIMNCADNSGARNLYII [RPL23A]", "protein stability index": "2.33 ± 0.089"}
{"sequence": "AINLMGVKNNLLTPKSG [RPO31]", "protein stability index": "3.11 ± 0.13"}
{"sequence": "AIPNPEDVVAISSRTFG [RPS0A]", "protein stability index": "3.22 ± 0.1"}
{"sequence": "AIRADPAFKPTEKKFTK [RPL5]", "protein stability index": "3.11 ± 0.26"}
{"sequence": "AIRKAPHNSKSLGFLQQ [RPN3]", "protein stability index": "2.9 ± 0.082"}
{"sequence": "AISQSLRDESLTVDNLS [PRE5]", "protein stability index": "2.96 ± 0.093"}
{"sequence": "AISTGNWSLKRFKMERA [RET1]", "protein stability index": "1.94 ± 0.097"}
{"sequence": "AITHMIDALGTEFSKND [SCL1]", "protein stability index": "2.47 ± 0.069"}
{"sequence": "AIVLPMKRADKFKDMGI [RPT5]", "protein stability index": "2.39 ± 0.096"}
{"sequence": "AKEKERMLEEAIDHLKA [YIL149C/MLP2]", "protein stability index": "3.03 ± 0.05"}
{"sequence": "AKEVKVLYHTSGAITFV [PRP8]", "protein stability index": "2.12 ± 0.055"}
{"sequence": "AKGKSGVQTAYIDYSSK [RRP40]", "protein stability index": "2.54 ± 0.24"}
{"sequence": "AKIDVMLTIARLGFFYN [RPN7]", "protein stability index": "2.44 ± 0.15"}
{"sequence": "AKLSDTLIIDQVRKDLG [NUT1]", "protein stability index": "2.83 ± 0.11"}
{"sequence": "AKNFSAQKRVVSYMMPS [SRB8]", "protein stability index": "2.02 ± 0.17"}
{"sequence": "AKQAKIRAGEFDVVLTT [SNF2]", "protein stability index": "3.56 ± 0.11"}
{"sequence": "AKRAQFRKKRKFELGRQ [RPS8A]", "protein stability index": "3.24 ± 0.08"}
{"sequence": "AKTFGASVRIFLYPSNI [RPL33A]", "protein stability index": "2.38 ± 0.057"}
{"sequence": "ALDFRNVSIVANYIKER [SMC4]", "protein stability index": "1.51 ± 0.069"}
{"sequence": "ALECRLASAIASGLLRA [CSN12]", "protein stability index": "1.58 ± 0.072"}
{"sequence": "ALGMMTRISSQFEKSRK [RET1]", "protein stability index": "1.39 ± 0.066"}
{"sequence": "ALKDPQTDADRVKDPQW [RIP1]", "protein stability index": "3.26 ± 0.081"}
{"sequence": "ALLIAGHDADDGYQLFH [PUP2]", "protein stability index": "2.29 ± 0.16"}
{"sequence": "ALMRCSFEETVEILFEA [RPO21]", "protein stability index": "3.12 ± 0.082"}
{"sequence": "ALRALQENGTIFRGSLI [YDL088C/ASM4]", "protein stability index": "2.02 ± 0.11"}
{"sequence": "ALSAYHKVQTKLTRELE [RPS7B]", "protein stability index": "2.4 ± 0.055"}
{"sequence": "ALSGNEGDASPFTDITV [RPB2]", "protein stability index": "2.99 ± 0.14"}
{"sequence": "ALTTIKGVGRRYSNLVC [RPS18A]", "protein stability index": "2.56 ± 0.089"}
{"sequence": "ALVAGIERYPLKVTKKH [RPL27A]", "protein stability index": "2.17 ± 0.27"}
{"sequence": "AMEFIFGNSLICEDPET [SMC2]", "protein stability index": "2.38 ± 0.073"}
{"sequence": "AMNDKDLTMGQVGERIK [RPO21]", "protein stability index": "3.31 ± 0.17"}
{"sequence": "AMREVNDEKRVKEEYDI [YIL149C/MLP2]", "protein stability index": "2.62 ± 0.25"}
{"sequence": "ANEQLKLFNRIVERETN [CSN12]", "protein stability index": "2.5 ± 0.12"}
{"sequence": "ANGGSTIISPHKDIPEE [DSN1]", "protein stability index": "3.44 ± 0.21"}
{"sequence": "ANHDDQDDIDEMVENSS [SRP68]", "protein stability index": "3.1 ± 0.1"}
{"sequence": "ANIFRIHSKSMSVERGI [RPT1]", "protein stability index": "3.16 ± 0.11"}
{"sequence": "ANLLQINVDNDPFFAQS [YML103C/NUP188]", "protein stability index": "3.04 ± 0.059"}
{"sequence": "ANNDINSLLSNFNDIPP [YDL088C/ASM4]", "protein stability index": "2.56 ± 0.097"}
{"sequence": "ANNGAAFSPLTTTRIQS [MED2]", "protein stability index": "2.67 ± 0.081"}
{"sequence": "ANNYSSNIGNNSINNNN [YDL088C/ASM4]", "protein stability index": "2.51 ± 0.071"}
{"sequence": "ANPKKLALMTAHSLSPK [CDC53]", "protein stability index": "2.43 ± 0.052"}
{"sequence": "ANVELTPSNIRSLCEVL [RPC34]", "protein stability index": "1.32 ± 0.053"}
{"sequence": "APGKVELAINLIRFDES [SMC2]", "protein stability index": "3.12 ± 0.16"}
{"sequence": "APIKKIIERYIKSKADA [PRP8]", "protein stability index": "3.11 ± 0.12"}
{"sequence": "APLKALVQEQVREFQRR [BRR2]", "protein stability index": "1.26 ± 0.1"}
{"sequence": "APLNFNPIIENNVDNKY [SSN2]", "protein stability index": "2.69 ± 0.052"}
{"sequence": "APLNLEIPAYEFDGDKV [RIP1]", "protein stability index": "2.6 ± 0.099"}
{"sequence": "APNHSPEIDNLDDLVVL [RRP6]", "protein stability index": "3.16 ± 0.11"}
{"sequence": "APPQRPRFNRENKVSPA [RPS26A]", "protein stability index": "3.38 ± 0.15"}
{"sequence": "AQANNNNNGLPQNGNIN [GAL11]", "protein stability index": "3.04 ± 0.049"}
{"sequence": "AQAQAQAQAQAHAQHQP [GAL11]", "protein stability index": "2.81 ± 0.029"}
{"sequence": "AQEDVPYLLPYILEAEA [QCR7]", "protein stability index": "2.02 ± 0.048"}
{"sequence": "AQFRVPRYHSKNSFQQA [SWP82]", "protein stability index": "2.5 ± 0.075"}
{"sequence": "AQKYASIVGVDLSSAAS [FAS2]", "protein stability index": "2.13 ± 0.069"}
{"sequence": "AQNQGMFGAKPAGTSLF [YGL172W/NUP49]", "protein stability index": "2.32 ± 0.054"}
{"sequence": "AQNVPMNIIQQQQQQNT [GAL11]", "protein stability index": "2.48 ± 0.043"}
{"sequence": "AQSRNVEIEKRILKLGT [YGR119C/NUP57]", "protein stability index": "3.33 ± 0.082"}
{"sequence": "AQSSHIRAIRKVISEIL [RPS1A]", "protein stability index": "1.55 ± 0.017"}
{"sequence": "AQSVGCRVDFKNPHDII [RPL12A]", "protein stability index": "2.15 ± 0.061"}
{"sequence": "AQYCYKNGLYQEAFKIY [SRP72]", "protein stability index": "2.87 ± 0.075"}
{"sequence": "ARGTIEIVSDVKVVDAG [RPP0]", "protein stability index": "1.61 ± 0.1"}
{"sequence": "ARKELPIFDYIHIDALE [SIR3]", "protein stability index": "2.3 ± 0.053"}
{"sequence": "ARNVQVHQEPYVFNARP [RPS0A]", "protein stability index": "3.01 ± 0.098"}
{"sequence": "ARQQVAQQLRNQQQQQQ [GAL11]", "protein stability index": "2.73 ± 0.064"}
{"sequence": "ARRLKNRAARDRRAQRV [RPL19A]", "protein stability index": "2.97 ± 0.14"}
{"sequence": "ARSIDVEKGVNPTKSKE [ECM29]", "protein stability index": "3.32 ± 0.26"}
{"sequence": "ARTATVSKKWAAAGVCE [RPL14B]", "protein stability index": "2.9 ± 0.089"}
{"sequence": "ARTIKATLPYIKQDIPI [RPB2]", "protein stability index": "2.73 ± 0.1"}
{"sequence": "ARYVIATSTKVSVEGVN [RPL6A]", "protein stability index": "1.62 ± 0.051"}
{"sequence": "ASAGSKEGASTNWDDHA [YMR153W/NUP53]", "protein stability index": "3.26 ± 0.13"}
{"sequence": "ASDESLLRYGGAFTIAL [RPN2]", "protein stability index": "3.39 ± 0.099"}
{"sequence": "ASLADVMSIESLVEVVF [FAS1]", "protein stability index": "2.89 ± 0.08"}
{"sequence": "ASLKHDNETKAMLINLI [RPN3]", "protein stability index": "2.85 ± 0.28"}
{"sequence": "ASPSAHTSSSDGNNEIF [RPN4]", "protein stability index": "2.36 ± 0.063"}
{"sequence": "ASSAVMNRRKIAMPKRR [YLR335W/NUP2]", "protein stability index": "1.19 ± 0.074"}
{"sequence": "ASSPIILEEGSSGMGAF [RPN10]", "protein stability index": "3.04 ± 0.079"}
{"sequence": "ASTGSGKTLAFVIPILI [PRP28]", "protein stability index": "1.47 ± 0.069"}
{"sequence": "ASVGDILKTLERSICAL [YML031W/NDC1]", "protein stability index": "2.12 ± 0.066"}
{"sequence": "ATALQTCAGGRLFNVVV [SMC2]", "protein stability index": "2.63 ± 0.12"}
{"sequence": "ATASAIAATAVASLVLA [RPL4A]", "protein stability index": "2.37 ± 0.1"}
{"sequence": "ATFLLTDIKDTLTKISM [MCD1]", "protein stability index": "3.03 ± 0.13"}
{"sequence": "ATKDNELNVKHVKQCQE [SMC2]", "protein stability index": "2.96 ± 0.1"}
{"sequence": "ATQMTLNTFHFAGVASK [RPO21]", "protein stability index": "1.89 ± 0.11"}
{"sequence": "ATSVESVDIGVETILSG [FAS2]", "protein stability index": "2.93 ± 0.084"}
{"sequence": "AVDHRRQNRNQEIFDAN [RPL13A]", "protein stability index": "3.15 ± 0.075"}
{"sequence": "AVEQRKKEKLDSGEVDA [DPB4]", "protein stability index": "3.2 ± 0.23"}
{"sequence": "AVFKIVLQPLLPRELPK [SNU114]", "protein stability index": "2.05 ± 0.083"}
{"sequence": "AVLKKIQSKAVEQGYED [YCG1]", "protein stability index": "3.05 ± 0.12"}
{"sequence": "AVSTIASISLAIGYPTL [RPP0]", "protein stability index": "1.92 ± 0.055"}
{"sequence": "AVSVANGFMHAGTTDNS [RPN2]", "protein stability index": "1.25 ± 0.062"}
{"sequence": "AVVVRGRYAGKKVVIVK [RPL27A]", "protein stability index": "3.13 ± 0.11"}
{"sequence": "AYFMVGAMGLLSSAGAK [RIP1]", "protein stability index": "1.99 ± 0.11"}
{"sequence": "AYGNWFNGLKPLIQNSM [PRP8]", "protein stability index": "2.94 ± 0.063"}
{"sequence": "AYLLLNAAGNTPDATKI [RPP2A]", "protein stability index": "2.2 ± 0.038"}
{"sequence": "AYPGKLICPQYGTENKD [CSL4]", "protein stability index": "1.89 ± 0.073"}
{"sequence": "AYSPKQDEQKHNENENS [RPO21]", "protein stability index": "2.65 ± 0.065"}
